According to PMC9574477 (Science (New York, N.Y.), 2022):

Experiments:
[1] = target: ACKR3 wild type, Tango assay construct (UniProt P25106)
[2] = target: ACKR3 wild type, expressed in cells for the NanoBiT β-arrestin recruitment assay (UniProt P25106)
[3] = target: ACKR3 wild type, expressed in cells for the NanoBiT β-arrestin recruitment assay (UniProt P25106 1-362); experiment: cell-based or functional assay
ACKR3 wild type, expressed in cells for the NanoBiT β-arrestin recruitment assay (UniProt P25106 1-362), sequence (P25106 whole entry): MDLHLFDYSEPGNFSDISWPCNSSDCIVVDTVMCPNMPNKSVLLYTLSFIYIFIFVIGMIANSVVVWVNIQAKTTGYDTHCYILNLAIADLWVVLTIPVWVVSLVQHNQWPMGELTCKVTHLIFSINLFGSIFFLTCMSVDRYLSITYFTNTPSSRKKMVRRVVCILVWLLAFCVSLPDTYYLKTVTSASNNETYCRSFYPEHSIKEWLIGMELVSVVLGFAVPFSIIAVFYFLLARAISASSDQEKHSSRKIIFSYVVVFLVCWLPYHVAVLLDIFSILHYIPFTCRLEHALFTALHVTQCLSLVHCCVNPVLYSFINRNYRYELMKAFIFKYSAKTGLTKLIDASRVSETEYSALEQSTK

CXCL12, sequence (P48061 22-93): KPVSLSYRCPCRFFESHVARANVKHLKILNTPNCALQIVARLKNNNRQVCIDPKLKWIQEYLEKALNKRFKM
ACKR3 wild type, expressed in cells for the NanoBiT β-arrestin recruitment assay (UniProt P25106), sequence (P25106 whole entry): as the sequence (P25106 whole entry) above
ACKR3 wild type, Tango assay construct, sequence (P25106 whole entry): as above

| Molecule | β-arrestin-2 recruitment to ACKR3, Tango assay, EC50 [1] [nM] | β-arrestin-2 recruitment to ACKR3, NanoBiT, EC50 [2] [nM] | β-arrestin-2 recruitment to ACKR3, NanoBiT, EC50 [3] [nM] |
| --- | --- | --- | --- |
| CXCL12 (from UniProt P48061 22-93) (ligand) | 3.9 | 0.75 | – |
| FGGFMRRK [LIH383] | – | – | 4.8 |
